Assay results published in the supplement of paper PMC10567573.

B1: TAF7L (parent)
chain: PDVENEVKRLLRSDAEAVSTRWEV
B2: CCND2 (parent)
chain: YFKCVQKDIQPYMRRMVATWMLEV

Variants of: B1
Test: protein stability index of a GFP-peptide fusion (GPS, HEK-293T) (PSI 1-6); higher = more stable
Settings: c terminus: a fixed tail appended
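Note: lentivirally expressed fusions sorted by FACS into six bins by GFP to DsRed ratio, PSI derived from sequencing read proportions per bin multiplied by bin number.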

Protein stability index, by site and new letter:
V24: C 4.15; R 4.36; N 5.33; T 4.31; G 4.61; Y 3.51; D 4.24; M 4.29; P 4.63; E 4.13; A 4.61
V18: W 2.22; M 4.78; P 3.31; T 3.83; Y 3.37; K 2.9; Q 3.9; E 4.54; F 2.31; G 4.29
L11: P 4.74; D 4.9; R 4.2; C 3.25; K 4.37; S 3.53; Q 4.35; N 4.79; E 5.07; A 4.29; M 3.14; T 4.11
L10: K 3.8; H 3.82; T 4.36; F 3.42; W 2.86; Q 3.25
R9: M 3.96; Y 2.41; T 3.44; K 4.02; F 2.69; C 3.39; L 3.29; G 3.57; P 4.17; N 3.66; Q 3.83; H 4.05; D 4.41
A15: E 4.36; F 2.57; R 2.99; W 2.93; P 3.19; Q 3.46; V 3.02; G 3.97; D 4.09; Y 3.51; L 3.58; H 3.88; N 3.54; S 3.22; T 1.9
W22: I 4.49; A 5.26; G 5.31; F 3.83; T 5.07; C 3.63; D 5.66; H 4.79; V 4.21; N 5.45; L 4.8; P 4.92; Q 5.11; E 5.52; R 4.92
R21: Y 2.51; P 3.87; L 2.86; V 3.2; K 3.76; E 5.41; M 3.61; F 2.53; G 4.36; N 4.93; S 2.95; D 5.01; Q 4.18; H 3.58; T 3.06; A 3.19; I 2.96; C 2.61
A17: F 2.64; T 2.71; N 3.61; S 3.93; P 3.28; G 3.69; C 3.54; V 3.35
E16: Q 3.22; D 3.74; I 2.08; R 2.12; C 2.01; L 2.73; S 3.17; Y 1.46; H 2.9; K 2.65; P 3.18; F 2.27; T 2.77; M 1.71
T20: K 3.85; N 3.28; Q 3.34; E 3.99; M 2.26; F 2.74; L 2.29; D 2.76; H 2.22; R 3.29; P 2.15; S 3.32; A 4.18; I 2.12; Y 2.43; V 2.39
D14: M 3.06; H 3.25; P 2.13; Y 1.45; W 1.48; L 1.77; T 2.12; S 2.26; A 1.97; R 2.38; N 2.75
S19: I 3.03; G 3.54; F 2.73; Y 2.08; H 3.18; P 3.75; M 2.48
S13: Q 2.09; P 4.71; F 1.9; H 2.53; Y 2.87; I 3.29; E 4.19; K 3.76; M 3.54; D 4.14; G 3.02; N 3.53
E23: R 2.75; C 2.83; K 3.59; H 3.56; I 2.59; G 3.86; M 2.4; A 3.52; Q 2.68; T 2.96; P 3.2; Y 2.56; S 2.53; L 2.29
R12: F 2.88; Y 3.96; H 4.38; V 2.96; C 2.99; N 3.87; E 4.54; D 4; K 4.19; S 3.75; P 4.61; A 3.5; W 2.33
K8: N 3.08; V 3.44; M 2.78; I 2.51; Q 3.34; W 2.19; P 4.16; Y 2.23

Variants of: B2
Test: as above
Settings: c terminus: a fixed tail appended

Protein stability index, by site and new letter:
Y12: D 3.35; Q 3.19; M 5.01; P 1.89
M13: G 2.58; Q 2.65; Y 3.66; A 3.23; F 3.07
Q10: V 2.5; G 2.42; A 3.8; T 2.71; P 3.81; S 3.22; C 3.12
T19: M 1.84; I 2.75; A 3.42; D 1.97; S 2.83; Y 3.88
V5: E 2.58; Q 2.37; M 2.48; H 2.23; F 2.7; R 4.02; G 1.47; W 2.9; A 2.25; I 2.92
Q6: A 1.97; K 3.15; W 1.64; R 2.65; F 2.07
K3: M 2.96; A 2.64; L 2.71; C 2.89; Y 3.04; D 3.48
A18: W 2.98; F 3.1; T 3.65; P 2.96
R15: L 2.33
Y1: W 2.82; V 3.34; T 2.37; P 1.71; I 2.47; S 2.85
M21: H 2.08; S 3.49; P 2.24; C 3.87
C4: Q 1.44; K 2.45; N 3.42; F 4.64; S 3.14; I 2.84
V24: I 3.24; S 2.97; T 1.9; P 1.91; Y 2.06; E 2.42; W 1.91; M 2.09; C 1.93
R14: W 1.74; A 3.47; D 2.16; I 2.63; P 3.71; C 2.77; T 4.32
F2: E 4.07; I 2.9; Q 3.63; T 2.61; N 2.66; D 2.15; C 2.61
D8: S 3.28; Y 3.53; W 2.03; T 2.37; C 2.87; G 3.98
P11: D 2.22; Q 3.25; Y 2.74; E 2.85; T 2.34; H 4.06; K 2.82
L22: I 2.61; T 3; N 1.65
K7: H 4.29; I 3.33; W 2.12; L 2.56; F 1.98
V17: M 2; E 2.49; G 3.39; K 2.5
E23: K 2.31; D 2.08; H 2.28; I 3.03; N 2.39; S 3.08; Q 2.13; V 2.73; Y 3.34; R 2.96
M16: G 3.04; R 2.65; S 2.58; N 1.51; K 2.67
W20: S 2; Y 3.49
I9: S 3.49; G 3.25
